{"source": "the nanobody polyreactivity screen of Harvey et al. (2022)", "data": [{"test": "yeast display, Sf9 membrane polyspecificity reagent, FACS + sequencing; frameworks hold sequencing errors", "method_in_brief": "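Nanobodies came from a synthetic yeast display library in Saccharomyces cerevisiae BJ5465, induced with galactose for 36–48 hours and stained for 1 hour at 4 °C with 10% biotinylated, detergent-solubilized Sf9 membrane reagent. Cells were enriched on streptavidin microbeads and then FACS-sorted, with low and high (top ~1%) gates set on anti-HA fluorescence for expression and streptavidin fluorescence for reagent binding. Each polyreactivity label reflects the gate a clone came from. Genes were amplified by colony PCR, sequenced by MiSeq 2 × 250 and filtered by CDR length.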", "values": [{"sequence": "QVHLAESAAGLDQAGGRLRLSCAAYGIIFYYYAMGWYRQAPGKERELVAAISGTGGRTYYADSVKGRFTISRDNAKNTVYLQMNSLKPEDTAVYYCNADDTPVPSIRFDSWGQGTQVTVSS", "polyreactivity (PSR sort gate)": "low polyreactivity"}, {"sequence": "QVHLEESGRRLVQAGGSLRLSCAASGSIFSYYAMGWSRPAPGKEWELVAAISQSGGSTYYADSVKGRFTISGDNAKNTVDLQMNSLKPEDTAVYSCNAVARHTRAKYGSWGQGTQVTVSS", "polyreactivity (PSR sort gate)": "low polyreactivity"}, {"sequence": "QVHLEESWGGLVQAGGSLSISCAASGSIFRPNAMGWYRPAPGKERELVAAINKIGGRTYYADSVKGRFTISRDNAKNTVYLQMNSLKPEDTAVYYCNAGGGYHYWGQGTQVTVSS", "polyreactivity (PSR sort gate)": "high polyreactivity"}, {"sequence": "QVHLGESGGGLVQAGGSLRLSCAASGSIFYGYAMGWYRHAPGKERELVAAITRDGSTNYADSVKGRFTISRDNAKNTVYLQMNSLKPEDTAVYYCAADTRSRRLSLVRRDYWGQGTQVTVSS", "polyreactivity (PSR sort gate)": "high polyreactivity"}, {"sequence": "QVHLQESGGGLMQAGGNLRLSCAASGYISTHYDMDWYRQAPGKERELVARIDDGAITNYADSVKGRFTISRDNAKNTVYLQMNSLKPEDTEVYYCAVYSGDDYYHDYWGQGTQVTVSS", "polyreactivity (PSR sort gate)": "low polyreactivity"}, {"sequence": "QVHLQESGGGLVQAGGSLRLSCPASGSISRYYDMGWYRQAPGKEREFVAGISGGAITYYADSVKGRFTISRDNAKNTVYLQMNSLKPEDTAVYYCAADTGVYQYHSYWGQGTQVTVSS", "polyreactivity (PSR sort gate)": "low polyreactivity"}, {"sequence": "QVHLVDSAGGLVQAGGNLSLSCEASGSIFRAYAMGWYRQAQGKERELVADISRSGGSTYYAESVKGRFTISRDNAKNTVYLQRNSLKPEDTAVSYGAAVFYLFSNLYGEYDYWGQGTQVTVSS", "polyreactivity (PSR sort gate)": "low polyreactivity"}, {"sequence": "QVHLVDSGGGLVQAGGSLRLSSAASGRIFPFYAMGWYRKAPGKERELVAAITSSGGRTYYADSVKGRFTISRDNAKNTVYLQMNSLKPEDTAVYYCAASLVGPFIYSHLYDYWGQGTQVTVSS", "polyreactivity (PSR sort gate)": "low polyreactivity"}, {"sequence": "QVHLVDSGGGLVQAGGSLSLSCAYSGSIFLTNAMGWYRHAPGKERELVDAITGDGSTNYADSVKGRFTISRDNAKNTVYLKMNSLIPEDTAVYYCDKDRGWSQWVDYDYWGQGTQVTVSS", "polyreactivity (PSR sort gate)": "low polyreactivity"}, {"sequence": "QVHLVDSGRGLVQAGGSLRLSCAASGSTFAEYVMGRYRQAPGKERELVASIDSGGGTNYADSVKGRFTISRDNAKNTVYLQMNSLKPEDTAVYYCAASGRDIGGYDYWGHGTQVTVSS", "polyreactivity (PSR sort gate)": "low polyreactivity"}, {"sequence": "QVHLVDTGGGLVKAGGSLRLSSAASGSTFEYYSMGWYRQEPGKERQLVPSISSGGSTNYADSVKGRFTISRDNAKNTVYLQMNSLKPEDTAVYYCAAEFAVSFYWSWLGQDYNFWGLGTQVTVSS", "polyreactivity (PSR sort gate)": "high polyreactivity"}, {"sequence": "QVHLVESAGGLVQAAASLRLTCSASGNTLGSYAMGWYIQAPGKETKFVATISKRGGSTYYADSVKGRFTISRDNAKNTVYFQMNSLKPEDSAVYYCAAEDEYYGGDEYWGQGTQVTVSS", "polyreactivity (PSR sort gate)": "high polyreactivity"}, {"sequence": "QVHLVESAVRLVQAGGSLRLSCAAPGFTFFSNARGWYRQAHGKERELFASITNDGSTYADSVKGRFTISRDNAMNTVYLQMTSLKPEDTAVYYCAARVPQWRYSRRTRERFDFWGQGTQVTVSS", "polyreactivity (PSR sort gate)": "low polyreactivity"}, {"sequence": "QVHLVESGGALVQAGGSLRLSCAASGRIFGGYTMGWYRQAPGKEREFVAAITSSGGSTYYADSVKGRFTISRDNAKNTVYLQMNSLKPEDTAVYYCAVDDYYYDYDYWGQGTQVTVSS", "polyreactivity (PSR sort gate)": "low polyreactivity"}, {"sequence": "QVHLVESGGCLVQAGGSLRLSCAASGRIFGLYAMGWYRPAPGKESELVAAISEGGGSTNYADSVKWRFTISRDNAKNTVYLQMNILKPEDTAVYYCAATYRTGVRRYYSWGQGTQVTVSS", "polyreactivity (PSR sort gate)": "low polyreactivity"}, {"sequence": "QVHLVESGGCLVQAGGSLRLSCAASGSTFSRYAMVWYRQAPGKEREYVAGISWSGGNTYYADSVKGRFTISRDNAKNTVYLQMNSLKTEATAVYYCASDFLDYWGVYGWAEYEYWGQGTQGTVSS", "polyreactivity (PSR sort gate)": "low polyreactivity"}, {"sequence": "QVHLVESGGCLVQAGGTLRLSCAATGSIFYNYDMRWYRQAPGKEREFVAAITWSGTSTYYADSVKGRFTISRDNAKNTVYLQMNSLKPEDSAVYYCNALVRRRPGYIRYDYWGQGTQVTVSS", "polyreactivity (PSR sort gate)": "low polyreactivity"}, {"sequence": "QVHLVESGGGIVQAGGSLRLSCAASGFTFRRYAMGWYRQAAGKERELVATITKGGGRTYYADSVKGRFTISRDNAKNTVYLQMNSLKPEDTAVFYCNASLTYDYNYWGPGTQVTVSS", "polyreactivity (PSR sort gate)": "high polyreactivity"}, {"sequence": "QVHLVESGGGIVQAGGSLRLSCAASGRTFVVYAMGWYRPATGKQLELVAAIRRIDGRTYYADSVKGRFTISRDNAKNTVYLQMNCLKPEDTAVYYCAADWVGATGYLYGYWGQGNQVTVSS", "polyreactivity (PSR sort gate)": "low polyreactivity"}, {"sequence": "QVHLVESGGGLFQAGGRLRLSCAAAGSTFPKYARGWYRQAPGKERELVAAISWSGDSTNYADSVKGRITISRDNAKNTVYVQMNSLKPEDTAVYYCAAYNFIHAGPWEYDYWGQGTQVTVSS", "polyreactivity (PSR sort gate)": "low polyreactivity"}, {"sequence": "QVHLVESGGGLFQAGGSLRLIFAASGLIFYKNAMGWYRQAPGKERELVAISSSGGSTYYADSVKGRFTISRDNAKNSVYLQMHSLKPEDSAVYYCAARSRRYGGGYWGQGTQVTVSS", "polyreactivity (PSR sort gate)": "high polyreactivity"}, {"sequence": "QVHLVESGGGLFQAGGSLRLSCAASGGIFSIYAMGWYRQAPGKERELVAAISTSGGSTYYADSLKGRFTISRDNAKNSVYLQMNSLKPEDTAVYYCNARRGFYWSWRGRYISGDYWGQGTQVTVSS", "polyreactivity (PSR sort gate)": "high polyreactivity"}, {"sequence": "QVHLVESGGGLGHAGGSLLLSCAASGSIFGRNAMGWYRQAPGKERELVADIWNGGSTYYADSVKGRFTISRDNAKNTVYLQMNILKPEDTAVYYCNADANDDGRFGGYIKYDYWGQGTQVTVSS", "polyreactivity (PSR sort gate)": "low polyreactivity"}, {"sequence": "QVHLVESGGGLGKAGGSLRLTCAASGSTFKYYAMAWYRQAPGKETELVAAISQRGGSTYYADSVKGRFTISRYNAKNTVYLQMNCLKPEDTAVYYCNAGFQRAYSGPGYDMDYWGQGTQVTVSS", "polyreactivity (PSR sort gate)": "high polyreactivity"}, {"sequence": "QVHLVESGGGLLQAGGSLRLSCAASGRTFGHNAMGWNRQAPGKERELVAAISSGGNTYYADSVKGRFTISRDNAKNTVYLQMNSLKPEDTAVYYCAAVTVIGGEYDYWGQGTQVTVSS", "polyreactivity (PSR sort gate)": "low polyreactivity"}, {"sequence": "QVHLVESGGGLLQAGGSLRLSCAASGTIYGVYAMGWYRQAPEKEGELVAAISWTDGTTYYADSVKGRFTISRDNAKNTVYLQINSLKPEDTAVYYCAAEADVPPYLFGYWGQGTQVTVSS", "polyreactivity (PSR sort gate)": "high polyreactivity"}, {"sequence": "QVHLVESGGGLVHAGGSLRLSCAASGSTFPGYGMGWYRQAPGQERELVATNRNGGITNYADSVKGRFTISRDNAKNTVYLQMNSLKAEDTAVYYCAADVVQYLYYFRLDYWGQGTQVTVSS", "polyreactivity (PSR sort gate)": "low polyreactivity"}, {"sequence": "QVHLVESGGGLVKAGGSLRLSCAASGRIFDNYVMGWYRQAPGKERELVAAISSGGGTYYADSVKGRFTISLDNAKNTVYLQMNSLKPEDTAVYYCAAAAYYADFDYWGQGTQVTVSS", "polyreactivity (PSR sort gate)": "low polyreactivity"}, {"sequence": "QVHLVESGGGLVNAGGTLRLSCAASGSTYSRYAMGWYRQAPVKESELVAAITRSGGSTYYADSVKGRFTISRDNAKNTVYLQMNSLKPEDTAVYYCNRPRLYGGSPYYYWGQGTQVTVSS", "polyreactivity (PSR sort gate)": "high polyreactivity"}, {"sequence": "QVHLVESGGGLVQAGCSLRLSCAASGSTISRYAMGWNRQAPGKETELVATITGGGRTYYADSVKGRFTISRDNAKNTVYLQMNSLKPEDTAVYYCAVRGYHQYKYGYWGQGTQVTVSS", "polyreactivity (PSR sort gate)": "high polyreactivity"}, {"sequence": "QVHLVESGGGLVQAGCSLRLSCAASGSTSASYAMGCDRQAPGKERELVAAISGRGTTTYYADSVKGRFTISRDNAKNTVYLQMNSLKPEDTAVYYCAVYRRGGVEAFLYWGQGTQVTVSS", "polyreactivity (PSR sort gate)": "high polyreactivity"}, {"sequence": "QVHLVESGGGLVQAGCSLRLSSSASGFTFVRNAMGWYRQAPGKERELVAAISKSGGRTYYTDSVKGRFTISRDNAKNSVYLHLNSLIPEDTAVYYCASDPVSDYYGYGYWGQGTQVTVSS", "polyreactivity (PSR sort gate)": "high polyreactivity"}, {"sequence": "QVHLVESGGGLVQAGGCLRLSCAASGYIFKSYVMGWYRQAPGKERELVAAITWSGGSTYYADSVKGRFTMSRDNAKNTVYFQMNSLKPEDTAVYYCAAYPRRYRTTYDYWRQGTQVTVSS", "polyreactivity (PSR sort gate)": "high polyreactivity"}, {"sequence": "QVHLVESGGGLVQAGGRLRLSCAASGRIFGTNAMGWYRQAPGKERELVATITRGGGNTYYADSVKGRFTISRDKAKNTVYLQRNSLKPEDTAVYYCAAKFHRFAWFSHYDYWGQGTQVTVSS", "polyreactivity (PSR sort gate)": "low polyreactivity"}, {"sequence": "QVHLVESGGGLVQAGGSHRLSCAASGSIFRYNAMGWYRQAPGKEREFVAIISYSGVRTYYADSVKGRFTISRDNAKNTVYLEMNSLKPEDTAVYYCAADFKQKGHRTRTTYWGQGTQVTVSS", "polyreactivity (PSR sort gate)": "high polyreactivity"}, {"sequence": "QVHLVESGGGLVQAGGSHRLSCAASGSIFWYNAMGWYRQAPGKERELVAGITYGGDTNYADSVKGRFTISRDNAKNTVYLQMNSLKPEDTAVYYCAKRWYGGRRYDYWGQGTQVTVSS", "polyreactivity (PSR sort gate)": "low polyreactivity"}, {"sequence": "QVHLVESGGGLVQAGGSLHLSCAPSGRTFGYYAKGGYRQAPGKEREFVAAISHSAGSTSYADSVKGRFTLSRDNAKNTVYLQMNSLKPEDTAVYYCATPSQLHPYEYWGQGSQVTVSS", "polyreactivity (PSR sort gate)": "low polyreactivity"}, {"sequence": "QVHLVESGGGLVQAGGSLLLSCAASGFTFTAYAMGWYRQAPGKERELVAAISYRGGRTNYAYSVKGRFTISRDNAKNTVYLQMNSLKPEDTAVYYCASRQGISTREMDYWGQGTQVTVSS", "polyreactivity (PSR sort gate)": "high polyreactivity"}, {"sequence": "QVHLVESGGGLVQAGGSLLLSCGASGITFVTYAMGWYRQAPGKEREFVPAISRSGGRTYYADSVKGRFTISRDNAKNTVYLQMNSLKPEDTAVYYCASDVFLLYSFTIYDYWGQGTQVTVSS", "polyreactivity (PSR sort gate)": "high polyreactivity"}, {"sequence": "QVHLVESGGGLVQAGGSLRISCAASGFTFRYNAMGWNRQAPGKERELVAAISRGTITNYADSVKGRFTISRDNAKNTVYLQMNSLKPEDTAVYYCAARYPGHFRFYYWGQGTQVTVSS", "polyreactivity (PSR sort gate)": "high polyreactivity"}, {"sequence": "QVHLVESGGGLVQAGGSLRISCAASGFTFVWYAMGWYRPPPGKERELVAALSRRGTRTYYADSVKGRFSISRDNAKNTVYLQMNSLKPEDTAVYYSAASNGYEAVTYDYWGQGTQVTVSS", "polyreactivity (PSR sort gate)": "high polyreactivity"}, {"sequence": "QVHLVESGGGLVQAGGSLRISCAASGLIFPDYTMGWYRPAPGKESELVAVITDGDSTYYADSVKGRFTISRDNAKNTVYLQMNSLKPEDTAVYYCASELDGSKYTLDYWGQGTQVTVSS", "polyreactivity (PSR sort gate)": "low polyreactivity"}, {"sequence": "QVHLVESGGGLVQAGGSLRISCAAYGRTFRYYAMGCYRQAPAKDRELVAGISSSGDRTYFADSVKGRFTISRDTAKNTVYLQMNSLKPEDTAVYYCAADRGARGDYYWGQGTQVTVSS", "polyreactivity (PSR sort gate)": "high polyreactivity"}]}]}
